Several values for one entry are separate records, joined by “and”; a condition that tells them apart may be missing. Equal entries are not always repeated. Where two headings read alike, the source gives them in different places. Values belong to the substance of their own block, whether it stands above or below them.
Tests used:
C3b C3b (Homo sapiens) [1] = target: C3b C3b (Homo sapiens) (UniProt P01024); conditions: cited from earlier work
C3b = C3b (UniProt P01024); experiment: SPR
C3b C3b (Homo sapiens) [2] = target: C3b C3b (Homo sapiens) (UniProt P01024); conditions: cited from earlier work; remark: listed apart in the source

Sequence of C3b C3b (Homo sapiens) (P01024 566-670): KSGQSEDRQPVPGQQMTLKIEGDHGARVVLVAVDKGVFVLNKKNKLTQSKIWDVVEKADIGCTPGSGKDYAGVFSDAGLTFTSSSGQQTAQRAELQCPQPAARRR

Substance: Factor H CCPs 1-4 (from UniProt P08603)
- Kd (C3b C3b (Homo sapiens) [1]): 11 µM and 14 µM

Substance: Factor H (from UniProt P08603 19-1231) (natural protein)
- Kd (C3b): 0.647 µM

Substance: Factor H CCPs 19-20 (from UniProt P08603)
- Kd (C3b C3b (Homo sapiens) [2]): 5.4 µM and 4 µM

The remaining lines, values ahead:

- KD1 (1:2 binding model, first of two independent sites) (C3b): 1.7 µM
- KD2 (1:2 binding model, second of two independent sites) (C3b): 5.6 µM
Substance: FHΔ10–15

- Kd (C3b): 1.52 µM
Substance: Factor H-like protein 1 (natural protein)

Source: PMC4707092
